Results on two molecules are retold here after patent publication US20190144538A1 (TETRAGENETICS, published 2019).

The target of test [1] is human Kv1.3 protein on cells (human, UniProt P22001 1-575). Put plainly: cell-based or functional assay.
The target of test [2] is human Kv1.3 protein with C-terminal FLAG and 10xHis tags (human) (UniProt P22001). Put plainly: ELISA, supernatant, dilution 50.
The target is the same in test [3]. As to the kind of experiment: ELISA, supernatant, dilution 250. A general note: An ELISA detects its analyte on a solid surface through an enzyme-linked reagent.
The target is the same in test [4]. As to the kind of experiment: ELISA, supernatant, dilution 1250.
For test [5] the target is unchanged. Put plainly: ELISA, supernatant, dilution 6250.

Sequence of human Kv1.3 protein with C-terminal FLAG and 10xHis tags (human) (P22001 other isoform, or with tags, fused parts or gaps): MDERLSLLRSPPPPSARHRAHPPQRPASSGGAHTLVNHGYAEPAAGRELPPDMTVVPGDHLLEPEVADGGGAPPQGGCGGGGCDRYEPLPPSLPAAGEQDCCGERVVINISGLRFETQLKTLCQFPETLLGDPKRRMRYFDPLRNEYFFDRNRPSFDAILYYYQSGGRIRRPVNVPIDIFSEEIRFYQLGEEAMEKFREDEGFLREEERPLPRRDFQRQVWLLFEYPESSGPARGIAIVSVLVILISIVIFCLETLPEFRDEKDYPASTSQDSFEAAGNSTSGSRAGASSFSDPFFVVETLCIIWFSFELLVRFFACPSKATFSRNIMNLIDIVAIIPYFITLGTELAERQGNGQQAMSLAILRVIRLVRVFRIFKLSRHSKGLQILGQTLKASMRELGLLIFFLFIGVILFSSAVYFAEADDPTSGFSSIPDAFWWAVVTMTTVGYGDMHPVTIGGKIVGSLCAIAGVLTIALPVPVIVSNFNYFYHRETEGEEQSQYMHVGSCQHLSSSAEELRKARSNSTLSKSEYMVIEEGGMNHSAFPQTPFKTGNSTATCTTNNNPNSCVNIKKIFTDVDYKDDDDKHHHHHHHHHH
Sequence of human Kv1.3 protein on cells (P22001 whole entry): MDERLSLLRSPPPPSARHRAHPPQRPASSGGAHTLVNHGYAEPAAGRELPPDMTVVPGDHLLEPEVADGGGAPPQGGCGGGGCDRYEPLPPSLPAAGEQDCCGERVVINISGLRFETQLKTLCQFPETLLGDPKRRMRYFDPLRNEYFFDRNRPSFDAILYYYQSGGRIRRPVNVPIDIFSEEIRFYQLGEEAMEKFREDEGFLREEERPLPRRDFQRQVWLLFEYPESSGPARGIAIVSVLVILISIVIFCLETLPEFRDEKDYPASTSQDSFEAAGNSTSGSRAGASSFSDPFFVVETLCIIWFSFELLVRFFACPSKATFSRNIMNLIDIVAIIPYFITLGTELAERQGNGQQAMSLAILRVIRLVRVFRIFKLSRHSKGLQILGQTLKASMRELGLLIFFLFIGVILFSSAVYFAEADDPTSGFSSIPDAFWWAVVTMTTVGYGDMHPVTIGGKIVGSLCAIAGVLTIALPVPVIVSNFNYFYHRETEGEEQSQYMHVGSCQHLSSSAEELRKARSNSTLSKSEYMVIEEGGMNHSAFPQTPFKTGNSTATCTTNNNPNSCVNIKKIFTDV

B1: 1A3 (Fc fusion, not shown: small tags and cut ends; a dimerising Fc or GST)
scFv (part 1 of 2): LDIQMTQSPSSVTASVGEKVTINCKSSQSVVSASNQKSYLNWYQQRPGQSPRLLIYYASTQELGIPDRFSGSGSTTDFTLTISSVQPEDAAVYYCQQAYSAPYNFGSGTRLEIK
scFv (part 2 of 2): QVQLQESGGGLVQPGGSLRLSCAASGFTFSINGMSWVRQAPGKEVEWVSSINSGGEITNYRDSVKGRFTISRDNVKNTLYLQMNSLKPEDTAFYHCVTGIVAYDYWGQGTQVTVSS
B1: the “IC50, dose-response of Kv1.3 current block (whole-cell patch clamp)” value in test [1] came out at 109 nM.

B2: 19724p1.E6 (Fc fusion, not shown: small tags and cut ends; a dimerising Fc or GST)
scFv (part 1 of 2): ALTQPASVSANLGETVEITCSGGYSDDGSYYYGWYQQKSPGSAPVTVIYENNKRPSDIPSRFSGSLSGSTNTLTITGVRAEDEAVYYCGSWDSSAGIFGAGTTLTVL
scFv (part 2 of 2): MAAVTLDESGGGLQTPGGTLSLVCKASGFTFSSHGMQWVRQAPGKGLEWVAGISRDGSRTRYGAAVKGRATISRDNGQSTVRLQLNNLRAEDTAIYFCAKSAYECDGYSCWTFIAGSIDAWGHGTEVIVS
In the case of B2, in test [1], the “IC50, dose-response of Kv1.3 current block (whole-cell patch clamp)” value came to 6 nM. The ELISA signal amounted to 0.077 in test [2], 0.074 in test [3], 0.077 in test [4] and 0.084 in test [5].
